Experimental findings from article PMC2837359 (Journal of molecular biology, 2009) are described below.

This data set concerns the molecule itself. The experiment in a line: single particle electron microscopy.

B1: galactose permease (GalP), H+/galactose symporter from E. coli, His6-tagged (natural protein, UniProt P0AEP1 1-464, looked up)
chain: MPDAKKQGRSNKAMTFFVCFLAALAGLLFGLDIGVIAGALPFIADEFQITSHTQEWVVSSMMFGAAVGAVGSGWLSFKLGRKKSLMIGAILFVAGSLFSAAAPNVEVLILSRVLLGLAVGVASYTAPLYLSEIAPEKIRGSMISMYQLMITIGILGAYLSDTAFSYTGAWRWMLGVIIIPAILLLIGVFFLPDSPRWFAAKRRFVDAERVLLRLRDTSAEAKRELDEIRESLQVKQSGWALFKENSNFRRAVFLGVLLQVMQQFTGMNVIMYYAPKIFELAGYTNTTEQMWGTVIVGLTNVLATFIAIGLVDRWGRKPTLTLGFLVMAAGMGVLGTMMHIGIHSPSAQYFAIAMLLMFIVGFAMSAGPLIWVLCSEIQPLKGRDFGITCSTATNWIANMIVGATFLTMLNTLGNANTFWVYAALNVLFILLTLWLVPETKHVSLEHIERNLMKGRKLREIGAHD
Take B1: the “stoichiometry N” value stood at 3.

By stoichiometry N is commonly meant the number of molecules, sites or subunits per partner or assembly.
